Here are results for two molecules from article PMC4404914, “Adenoviral L4 33K forms ring-like oligomers and stimulates ATPase activity of IVa2: implications in viral genome packaging” (Frontiers in Microbiology, 2015).

B1: 6His-tagged HAdV5 IVa2, purified from E. coli (natural protein)
chain: METRGRRPAALQHQQDQPQAHPGQRAARSAPLHRDPDYADEDPAPVERHDPGPSGRAPTTAVQRKPPQPAKRGDMLDRDAVEQVTELWDRLELLGQTLKSMPTADGLKPLKNFASLQELLSLGGERLLADLVRENMRVRDMLNEVAPLLRDDGSCSSLNYQLHPVIGVIYGPTGCGKSQLLRNLLSSQLISPTPETVFFIAPQVDMIPPSELKAWEMQICEGNYAPGPDGTIIPQSGTLRPRFVKMAYDDLILEHNYDVSDPRNIFAQAAARGPIAIIMDECMENLGGHKGVSKFFHAFPSKLHDKFPKCTGYTVLVVLHNMNPRRDMAGNIANLKIQSKMHLISPRMHPSQLNRFVNTYTKGLPLAISLLLKDIFRHHAQRSCYDWIIYNTTPQHEALQWCYLHPRDGLMPMYLNIQSHLYHVLEKIHRTLNDRDRWSRAYRARKTPK
notes: IVa2 of human adenovirus serotype 5; synthetic gene cassette, codon-optimized for bacteria, in pET28a (pET28-IVa2); the results speak of the full-length IVa2 band; A faster migrating band, perhaps a degradation product of IVa2, was also in the preparation; also called purified IVa2; source: E. coli BL21 (DE3) pLysS, purified (HiTrap NiNTA, HiPrep 16/10 SP-XL cation exchange)
B2: 6His-tagged HAdV5 L4 33K, purified from E. coli (natural protein)
chain: MAPKKKLQLPPPPTDEEEYWDSQAEEVLDEEEEDMMEDWESLDEEASEVEEVSDETPSPSVAFPSPAPQKSATGSSMATTSAPQAPPALPVRRPNRRWDTTGTRAAHTAPAAAAAAATAAATQKQRRPDSKTLTKPKKSTAAAAAGGGALRLAPNEPVSTRELRNRIFPTLYAIFQQSRGQEQELKIKNRSLRSLTRSCLYHKSEDQLRRTLEDAEALFSKYCALTLKD

Series [1] concerns the molecule itself. Briefly: transmission electron microscopy (negative stain); purified protein on glow-discharged carbon-coated formvar grids, rinsed with 20 mM Tris pH 7.5, 2% uranyl acetate.
Series [2] has as its target B1. Briefly: cell-based or functional assay.

In the case of B1, the binding result in series [1] is on record as “binds”. As to B2, the “ATPase activity of purified IVa2 (inorganic phosphate after 30 min at 37°C) with 33K and HAdV5 Tp-DNA; no significant increase with only IVa2 + 33K, 33K + Tp-DNA or IVa2 + Tp-DNA” value in series [2] stood at 3 fold.
